Values quoted from earlier work, collected in publication PMC13681993.

Target: GAB1 pY627 (Homo sapiens) (UniProt Q13480)
Experiment: fluorescence polarization

Substance: PTPN11 N-SH2 (from UniProt Q06124)
- Kd: 0.287 µM
